Test results taken from the supplement of paper PMC10065799, “High-throughput profiling of sequence recognition by tyrosine kinases and SH2 domains using bacterial peptide display” (eLife, 2023).

Key:
Grb2 SH2 = Grb2 SH2 (UniProt P62993); assay: SH2 binding enrichment of the phosphorylated peptide, bacterial display (enrichment ratio); higher = better substrate or ligand; peptides without Tyr show the background
c-Src SH2 = assay: as above
SHP2-C SH2 = assay: as above
AncSZ = assay: phosphorylation enrichment, bacterial display (enrichment ratio); higher = better substrate or ligand; peptides without Tyr show the background
Fer (mouse) = assay: as above
c-Src = assay: as above
Fes = Fes (UniProt P07332); assay: as above
MERTK = MERTK (UniProt Q12866); assay: as above
FGFR3 = FGFR3 (UniProt P22607); assay: as above
EPHB2 = EPHB2 (UniProt P29323); assay: as above
Jak2 = Jak2 (UniProt O60674); assay: as above
Hck = Hck (UniProt P08631); assay: as above
EPHB1 = EPHB1 (UniProt P54762); assay: as above
FGFR1 = FGFR1 (UniProt P11362); assay: as above
c-Abl (mouse) = assay: as above
Fyn = Fyn (UniProt P06241); assay: as above
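Wherever SH2 binding enrichment of the phosphorylated peptide, bacterial display is given: peptide library displayed on the E. coli surface as eCPX fusions, selected cells deep-sequenced, score is each peptide's frequency after selection divided by its frequency in the input.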
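Wherever phosphorylation enrichment, bacterial display is given: 11-residue human phosphosite peptides and single-mutation variants displayed on the E. coli surface, counted by deep sequencing, each peptide's frequency after selection divided by its frequency in the unselected input library; frequency after pTyr selection over input frequency; kinase dosed for 20-30% of maximal phosphorylation in three min.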

Chain of Fyn (P06241 whole entry, looked up, the tested form may be a part): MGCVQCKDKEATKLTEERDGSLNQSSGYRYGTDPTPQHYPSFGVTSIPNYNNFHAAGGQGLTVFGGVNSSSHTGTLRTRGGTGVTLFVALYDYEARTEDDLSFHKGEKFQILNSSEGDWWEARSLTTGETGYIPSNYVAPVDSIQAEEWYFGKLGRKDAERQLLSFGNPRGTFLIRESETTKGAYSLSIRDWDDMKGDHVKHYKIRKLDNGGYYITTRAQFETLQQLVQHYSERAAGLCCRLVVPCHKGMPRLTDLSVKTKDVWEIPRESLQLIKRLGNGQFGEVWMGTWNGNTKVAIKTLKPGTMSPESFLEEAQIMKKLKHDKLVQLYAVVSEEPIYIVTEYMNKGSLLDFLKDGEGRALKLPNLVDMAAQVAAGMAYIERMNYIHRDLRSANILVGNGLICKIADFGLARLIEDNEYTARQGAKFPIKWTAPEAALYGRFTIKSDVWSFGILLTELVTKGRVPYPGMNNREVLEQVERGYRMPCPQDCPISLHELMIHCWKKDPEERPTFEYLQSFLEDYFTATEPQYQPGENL
Chain of Jak2 (O60674 whole entry, looked up): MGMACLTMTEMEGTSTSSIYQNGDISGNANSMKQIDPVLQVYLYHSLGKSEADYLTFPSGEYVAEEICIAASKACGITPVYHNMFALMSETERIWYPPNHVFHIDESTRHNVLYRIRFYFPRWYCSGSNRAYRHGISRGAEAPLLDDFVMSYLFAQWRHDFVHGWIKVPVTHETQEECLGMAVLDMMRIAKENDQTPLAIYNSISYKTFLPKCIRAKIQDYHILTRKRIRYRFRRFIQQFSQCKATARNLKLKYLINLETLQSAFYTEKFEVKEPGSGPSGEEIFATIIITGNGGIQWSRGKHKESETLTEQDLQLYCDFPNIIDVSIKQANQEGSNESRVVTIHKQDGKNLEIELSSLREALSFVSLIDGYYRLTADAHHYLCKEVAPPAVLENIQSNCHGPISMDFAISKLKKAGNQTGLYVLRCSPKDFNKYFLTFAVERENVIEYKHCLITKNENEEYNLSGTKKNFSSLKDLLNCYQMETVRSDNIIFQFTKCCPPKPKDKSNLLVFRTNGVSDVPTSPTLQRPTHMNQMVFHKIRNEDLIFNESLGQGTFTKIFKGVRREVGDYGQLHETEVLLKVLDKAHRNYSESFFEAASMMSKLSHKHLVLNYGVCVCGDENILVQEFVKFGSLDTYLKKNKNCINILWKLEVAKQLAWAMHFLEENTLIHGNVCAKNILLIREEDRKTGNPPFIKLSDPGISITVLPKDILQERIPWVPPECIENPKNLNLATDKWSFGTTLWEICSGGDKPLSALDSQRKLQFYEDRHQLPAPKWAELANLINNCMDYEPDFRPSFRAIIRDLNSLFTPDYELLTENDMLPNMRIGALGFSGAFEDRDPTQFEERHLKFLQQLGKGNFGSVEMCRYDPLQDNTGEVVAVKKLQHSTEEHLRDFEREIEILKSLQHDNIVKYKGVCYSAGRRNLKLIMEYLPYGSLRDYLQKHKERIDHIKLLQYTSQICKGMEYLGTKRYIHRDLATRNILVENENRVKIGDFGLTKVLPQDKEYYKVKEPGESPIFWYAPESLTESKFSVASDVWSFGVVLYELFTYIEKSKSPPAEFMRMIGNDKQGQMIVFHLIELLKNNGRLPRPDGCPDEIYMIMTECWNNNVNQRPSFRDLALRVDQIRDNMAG
Chain of EPHB1 (P54762 whole entry, looked up): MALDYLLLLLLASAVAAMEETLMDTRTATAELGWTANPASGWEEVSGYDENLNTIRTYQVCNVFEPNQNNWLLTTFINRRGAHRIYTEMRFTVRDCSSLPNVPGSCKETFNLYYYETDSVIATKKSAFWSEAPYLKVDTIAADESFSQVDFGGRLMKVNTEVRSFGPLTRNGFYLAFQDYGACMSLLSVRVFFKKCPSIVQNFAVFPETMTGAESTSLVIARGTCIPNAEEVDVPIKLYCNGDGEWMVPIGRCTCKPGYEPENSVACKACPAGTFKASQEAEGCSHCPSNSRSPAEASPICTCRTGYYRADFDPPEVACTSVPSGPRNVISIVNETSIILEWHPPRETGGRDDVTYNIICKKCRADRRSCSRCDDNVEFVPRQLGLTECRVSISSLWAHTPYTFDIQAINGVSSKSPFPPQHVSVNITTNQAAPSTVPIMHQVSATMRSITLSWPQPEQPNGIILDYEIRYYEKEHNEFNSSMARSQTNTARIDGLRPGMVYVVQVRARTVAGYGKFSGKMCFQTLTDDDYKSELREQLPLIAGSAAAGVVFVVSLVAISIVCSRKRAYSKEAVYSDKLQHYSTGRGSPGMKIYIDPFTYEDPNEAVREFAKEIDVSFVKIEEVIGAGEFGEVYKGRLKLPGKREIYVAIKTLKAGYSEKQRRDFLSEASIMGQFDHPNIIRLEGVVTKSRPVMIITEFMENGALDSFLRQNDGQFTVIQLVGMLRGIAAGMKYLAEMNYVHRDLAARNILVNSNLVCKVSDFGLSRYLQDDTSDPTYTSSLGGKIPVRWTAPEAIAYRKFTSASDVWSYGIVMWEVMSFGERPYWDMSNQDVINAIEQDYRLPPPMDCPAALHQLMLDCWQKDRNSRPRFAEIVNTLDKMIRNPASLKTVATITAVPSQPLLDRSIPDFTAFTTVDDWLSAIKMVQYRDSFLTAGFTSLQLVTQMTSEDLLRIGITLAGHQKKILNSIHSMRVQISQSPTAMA
Chain of Hck (P08631 whole entry, looked up): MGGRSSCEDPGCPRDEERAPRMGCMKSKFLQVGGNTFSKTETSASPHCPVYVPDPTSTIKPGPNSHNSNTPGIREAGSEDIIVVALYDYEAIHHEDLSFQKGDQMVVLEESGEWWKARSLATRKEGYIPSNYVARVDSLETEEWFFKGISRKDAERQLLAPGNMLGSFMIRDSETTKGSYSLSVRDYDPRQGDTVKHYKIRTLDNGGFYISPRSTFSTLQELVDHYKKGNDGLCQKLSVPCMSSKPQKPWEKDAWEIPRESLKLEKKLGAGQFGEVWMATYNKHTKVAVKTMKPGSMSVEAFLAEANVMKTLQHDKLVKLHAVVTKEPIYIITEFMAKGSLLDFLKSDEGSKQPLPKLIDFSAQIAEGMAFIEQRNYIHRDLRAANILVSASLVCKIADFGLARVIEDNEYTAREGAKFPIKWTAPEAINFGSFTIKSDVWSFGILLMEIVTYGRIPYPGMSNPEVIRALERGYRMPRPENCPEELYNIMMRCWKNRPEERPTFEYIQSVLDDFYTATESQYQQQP
Chain of FGFR1 (P11362 whole entry, looked up): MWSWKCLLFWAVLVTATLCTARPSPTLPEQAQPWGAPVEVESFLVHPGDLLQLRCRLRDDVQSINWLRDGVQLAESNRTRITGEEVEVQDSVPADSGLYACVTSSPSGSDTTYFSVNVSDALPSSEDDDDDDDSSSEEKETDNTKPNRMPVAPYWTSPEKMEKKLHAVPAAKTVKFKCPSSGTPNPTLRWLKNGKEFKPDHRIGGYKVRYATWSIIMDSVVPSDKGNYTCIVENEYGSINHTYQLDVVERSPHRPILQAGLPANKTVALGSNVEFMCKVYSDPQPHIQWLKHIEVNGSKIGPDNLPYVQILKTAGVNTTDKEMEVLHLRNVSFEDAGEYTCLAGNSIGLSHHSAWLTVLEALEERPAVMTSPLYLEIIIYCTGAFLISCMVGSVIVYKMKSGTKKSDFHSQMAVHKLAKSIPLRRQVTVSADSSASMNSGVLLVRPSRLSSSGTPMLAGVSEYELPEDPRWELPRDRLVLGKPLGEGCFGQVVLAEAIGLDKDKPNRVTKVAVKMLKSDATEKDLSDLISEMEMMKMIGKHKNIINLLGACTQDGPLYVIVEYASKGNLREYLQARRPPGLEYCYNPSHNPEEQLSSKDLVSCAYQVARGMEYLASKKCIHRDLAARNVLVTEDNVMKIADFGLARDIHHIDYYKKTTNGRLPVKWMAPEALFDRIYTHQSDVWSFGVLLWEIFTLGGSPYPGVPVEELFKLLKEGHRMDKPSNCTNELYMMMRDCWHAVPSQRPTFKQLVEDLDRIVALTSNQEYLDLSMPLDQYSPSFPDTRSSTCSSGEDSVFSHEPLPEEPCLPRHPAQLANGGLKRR
Chain of EPHB2 (P29323 whole entry, looked up): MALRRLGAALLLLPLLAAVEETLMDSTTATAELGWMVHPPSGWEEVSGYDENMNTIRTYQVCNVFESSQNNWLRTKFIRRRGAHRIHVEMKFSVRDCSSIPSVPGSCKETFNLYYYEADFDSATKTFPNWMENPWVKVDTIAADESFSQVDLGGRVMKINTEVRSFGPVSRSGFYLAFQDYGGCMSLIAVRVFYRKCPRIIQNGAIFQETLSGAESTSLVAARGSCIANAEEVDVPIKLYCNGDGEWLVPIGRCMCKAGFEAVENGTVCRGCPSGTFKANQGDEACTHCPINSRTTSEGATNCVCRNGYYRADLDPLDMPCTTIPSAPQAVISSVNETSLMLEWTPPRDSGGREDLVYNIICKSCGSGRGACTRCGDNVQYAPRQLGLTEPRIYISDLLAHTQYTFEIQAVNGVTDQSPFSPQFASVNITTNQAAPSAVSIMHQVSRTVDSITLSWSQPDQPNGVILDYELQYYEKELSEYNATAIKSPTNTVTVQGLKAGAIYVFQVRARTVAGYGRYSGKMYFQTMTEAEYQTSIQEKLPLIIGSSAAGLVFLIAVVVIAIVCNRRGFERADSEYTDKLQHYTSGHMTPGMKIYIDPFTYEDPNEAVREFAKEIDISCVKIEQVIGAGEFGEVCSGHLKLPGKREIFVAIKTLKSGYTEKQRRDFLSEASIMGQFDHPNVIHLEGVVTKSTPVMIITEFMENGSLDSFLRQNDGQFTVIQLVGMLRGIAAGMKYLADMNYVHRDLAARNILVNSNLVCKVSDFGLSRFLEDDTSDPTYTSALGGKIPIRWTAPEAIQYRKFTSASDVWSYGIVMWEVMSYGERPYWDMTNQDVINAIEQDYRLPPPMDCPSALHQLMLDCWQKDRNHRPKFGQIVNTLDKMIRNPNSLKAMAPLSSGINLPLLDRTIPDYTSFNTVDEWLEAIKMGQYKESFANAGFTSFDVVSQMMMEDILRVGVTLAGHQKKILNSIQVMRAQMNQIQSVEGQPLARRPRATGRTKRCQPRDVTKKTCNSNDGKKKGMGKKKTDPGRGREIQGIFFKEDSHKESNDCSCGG

Row | Sequence | SH2 binding enrichment (Grb2 SH2) | SH2 binding enrichment (c-Src SH2) | SH2 binding enrichment (SHP2-C SH2) | phosphorylation enrichment (AncSZ) | phosphorylation enrichment (Fer (mouse)) | phosphorylation enrichment (c-Src) | phosphorylation enrichment (Fes) | phosphorylation enrichment (MERTK) | phosphorylation enrichment (FGFR3) | phosphorylation enrichment (EPHB2) | phosphorylation enrichment (Jak2) | phosphorylation enrichment (Hck) | phosphorylation enrichment (EPHB1) | phosphorylation enrichment (FGFR1) | phosphorylation enrichment (c-Abl (mouse)) | phosphorylation enrichment (Fyn)
1 | CTTIRYNFMCN [TP53_Y234_H233R_YF] | 1.87 | 1.65 | 1.82 | 0.948 | 0.501 | 0.372 | 0.983 | 0.407 | 0.684 | 0.613 | 0.833 | 0.435 | 0.552 | 0.434 | 0.618 | 0.521
2 | CTTSHYNYMCN [TP53_Y234_I232S] | 1.01 | 11 | 2.04 | 0.896 | 0.55 | 0.441 | 0.755 | 0.549 | 0.649 | 0.534 | 0.537 | 0.563 | 0.741 | 0.569 | 0.515 | 0.49
3 | DAPVVYLGSFG [PRAG1_Y132_R137G] | 0.646 | 0.479 | 6.03 | 0.863 | 0.475 | 0.507 | 0.851 | 0.437 | 0.623 | 0.579 | 0.776 | 0.631 | 0.389 | 0.491 | 0.671 | 0.514
4 | DASAVYLHDFQ [PLCG2_Y242] | 0.933 | 0.542 | 0.634 | 0.746 | 0.474 | 0.447 | 1.31 | 0.477 | 0.543 | 0.561 | 0.792 | 0.622 | 0.528 | 0.477 | 0.573 | 0.533
5 | DDLEVYLKHPL [SACS_Y3477_L3481P] | 0.604 | 0.341 | 0.592 | 1.53 | 0.558 | 1.85 | 1.31 | 0.562 | 0.735 | 0.625 | 1.32 | 1.73 | 0.871 | 0.643 | 0.842 | 1.26
6 | DDSNPYINVKL [MTHFD1_Y52_L51P] | 1.32 | 0.701 | 0.811 | 1.45 | 1.2 | 0.59 | 1.66 | 0.526 | 0.884 | 0.614 | 1.16 | 0.606 | 0.551 | 0.631 | 0.846 | 0.645
7 | DEEYEYMNRRR [ERBB3_Y1199] | 0.837 | 0.619 | 0.701 | 1.57 | 0.466 | 0.454 | 0.986 | 0.37 | 0.629 | 0.503 | 0.93 | 0.546 | 0.465 | 0.501 | 0.65 | 0.483
8 | DEFLEHRRIVG [FAM221A_Y20_Y20H_YF] | 0.813 | 0.531 | 0.574 | 0.747 | 0.387 | 0.409 | 0.902 | 0.48 | 0.502 | 0.494 | 0.716 | 0.47 | 0.447 | 0.45 | 0.58 | 0.425
9 | DERQPYAHMNG [IGF1R_Y1346] | 0.729 | 1.85 | 0.767 | 0.588 | 0.456 | 0.376 | 0.599 | 0.343 | 0.459 | 0.362 | 0.533 | 0.427 | 0.359 | 0.45 | 0.455 | 0.438
10 | DESEDYRDTVV [CNNM3_Y456] | 0.901 | 0.439 | 0.587 | 1.46 | 0.78 | 0.662 | 1.59 | 0.633 | 1.13 | 0.931 | 1.4 | 0.765 | 0.975 | 0.677 | 0.897 | 0.623
11 | DEWFLYKMRDI [CPS1_Y879_K875E] | 0.653 | 0.417 | 0.829 | 1.25 | 0.586 | 0.816 | 1.56 | 0.4 | 0.878 | 0.585 | 1.63 | 0.615 | 0.751 | 0.503 | 0.935 | 0.486
12 | DEYLEYRRIVG [FAM221A_Y20] | 1.03 | 0.547 | 0.762 | 1.14 | 0.51 | 1.07 | 0.881 | 0.38 | 0.968 | 0.615 | 0.91 | 1.06 | 1.12 | 1.07 | 0.859 | 1.03
13 | DFPGIYSGYDD [POLR1C_Y33_N32I] | 0.835 | 1.44 | 1 | 1.09 | 0.687 | 5.19 | 1.05 | 0.565 | 0.696 | 0.652 | 0.946 | 3.4 | 0.627 | 0.485 | 0.796 | 6.48
14 | DFSLKYATDIP [APC_Y1183_YF] | 0.781 | 0.457 | 0.737 | 0.914 | 0.536 | 0.378 | 1.08 | 0.374 | 0.668 | 0.619 | 0.897 | 0.47 | 0.606 | 0.592 | 0.572 | 0.524
15 | DGMADYSDPSY [CDC5L_Y459] | 0.833 | 0.459 | 0.616 | 1.43 | 0.486 | 0.538 | 1.3 | 0.496 | 0.686 | 1.71 | 1.47 | 0.487 | 1.33 | 0.611 | 0.859 | 0.571
16 | DGNIDYAEFAK [MCFD2_Y138_Y135N] | 0.801 | 0.443 | 1.04 | 1.24 | 0.445 | 0.646 | 1.2 | 0.51 | 0.62 | 0.545 | 0.987 | 0.673 | 0.498 | 0.595 | 0.757 | 0.804
